Assay results published in paper PMC5263247, “Lipid Signaling via Pkh1/2 Regulates Fungal CO2 Sensing through the Kinase Sch9” (mBio, 2017).

Target: T1, ScSch9-His (S. cerevisiae, UniProt P11792 1-824)
T1 construct: Sch9 kinase of S. cerevisiae; SCH9 synthesized with a C-terminal 6xHis tag and cloned into the E. coli expression vector p41; also called recombinant ScSch9-His; source: E. coli BL21(DE3), purified (IMAC, Ni-NTA Sepharose); not shown: 6xHis, C-terminal, kept
T1 sequence (looked up): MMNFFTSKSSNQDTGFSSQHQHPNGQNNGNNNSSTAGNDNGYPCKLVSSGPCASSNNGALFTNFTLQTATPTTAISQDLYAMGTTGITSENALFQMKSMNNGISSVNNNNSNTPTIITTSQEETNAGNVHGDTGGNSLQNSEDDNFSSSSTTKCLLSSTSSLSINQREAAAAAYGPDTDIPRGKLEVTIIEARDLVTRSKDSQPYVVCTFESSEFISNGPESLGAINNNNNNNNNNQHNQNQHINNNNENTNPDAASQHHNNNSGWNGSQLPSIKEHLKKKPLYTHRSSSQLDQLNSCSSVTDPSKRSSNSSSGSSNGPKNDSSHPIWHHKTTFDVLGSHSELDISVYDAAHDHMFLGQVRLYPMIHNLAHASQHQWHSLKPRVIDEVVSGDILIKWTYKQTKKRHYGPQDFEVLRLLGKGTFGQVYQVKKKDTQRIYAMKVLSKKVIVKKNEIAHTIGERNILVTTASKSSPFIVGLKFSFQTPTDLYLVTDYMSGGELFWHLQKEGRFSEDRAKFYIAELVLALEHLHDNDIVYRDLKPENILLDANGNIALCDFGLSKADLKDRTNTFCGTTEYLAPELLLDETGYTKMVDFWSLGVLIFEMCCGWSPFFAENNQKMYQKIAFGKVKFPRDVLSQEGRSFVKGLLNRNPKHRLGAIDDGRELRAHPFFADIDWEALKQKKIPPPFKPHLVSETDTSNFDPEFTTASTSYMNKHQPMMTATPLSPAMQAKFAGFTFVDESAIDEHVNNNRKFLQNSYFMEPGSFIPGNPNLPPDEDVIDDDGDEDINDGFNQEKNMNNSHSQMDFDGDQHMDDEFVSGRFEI
Test: co-IP; endogenous ScCst6 precipitated from S. cerevisiae WT lysate with rabbit anti-Cst6 antibody, bound to protein-G Sepharose beads, washed (IP buffer plus 500 mM NaCl), then incubated with 20 µg recombinant ScSch9-His for 3 h at 4°C; extensive washing; Western blot (anti-ScCst6, anti-6xHis)
Conditions: both partners purified

B1: ScCst6 (endogenous) (natural protein, UniProt P40535 1-587, looked up)
chain: MFTGQEYHSVDSNSNKQKDNNKRGIDDTSKILNNKIPHSVSDTSAAATTTSTMNNSALSRSLDPTDINYSTNMAGVVDQIHDYTTSNRNSLTPQYSIAAGNVNSHDRVVKPSANSNYQQAAYLRQQQQQDQRQQSPSMKTEEESQLYGDILMNSGVVQDMHQNLATHTNLSQLSSTRKSAPNDSTTAPTNASNIANTASVNKQMYFMNMNMNNNPHALNDPSILETLSPFFQPFGVDVAHLPMTNPPIFQSSLPGCDEPIRRRRISISNGQISQLGEDIETLENLHNTQPPPMPNFHNYNGLSQTRNVSNKPVFNQAVPVSSIPQYNAKKVINPTKDSALGDQSVIYSKSQQRNFVNAPSKNTPAESISDLEGMTTFAPTTGGENRGKSALRESHSNPSFTPKSQGSHLNLAANTQGNPIPGTTAWKRARLLERNRIAASKCRQRKKVAQLQLQKEFNEIKDENRILLKKLNYYEKLISKFKKFSKIHLREHEKLNKDSDNNVNGTNSSNKNESMTVDSLKIIEELLMIDSDVTEVDKDTGKIIAIKHEPYSQRFGSDTDDDDIDLKPVEGGKDPDNQSLPNSEKIK
notes: Transcription factor Cst6 (ATF/CREB family) of S. cerevisiae, endogenous protein of the wild type (BY4741); also called endogenous ScCst6; source: endogenous, S. cerevisiae WT lysate, immunopurified with anti-Cst6 antibody on protein-G Sepharose beads
Question: Does B1 bind?
Answer: binds
